In the assay the target is main protease from canine coronavirus (CCoV M^pro) (canine coronavirus). Kind of assay: crystal structure; CCoV M^pro incubated with two-fold molar excess of GC376 at 4 °C for 1 h; crystals from 0.2 M sodium citrate, 0.1 M Bis Tris propane 7.0, 25% w/v PEG 3350 at 20 °C; 2.75 Å, space group C2, eight protomers in the asymmetric unit.

Substance “main protease from canine coronavirus (CCoV M^pro) (enzyme)” had a stoichiometry N of 2.

The values are drawn from paper PMC9145999.
